Biological target: human insulin receptor IR-A (solubilised holoreceptor) (human) (UniProt P06213)
Experiment: competition SPA: displacement of [125I-A14Y]-human insulin from solubilised human IR-A, relative to human insulin standard

**Q.** How did the Receptor binding (hIRA) SPA, sup % relative to HI (% relative to HI) turn out when “A14E, A21G(GAPQ)50, B25H, desB30 human insulin (from UniProt P01308) (ligand)” was run?
**A.** 3.13

**Q.** Which Receptor binding (hIRA) SPA, sup % relative to HI (% relative to HI) does the source give for “A21G(GEH)67, desB30 human insulin (from UniProt P01308) (ligand)” here?
**A.** 4.85

**Q.** With “A21G, B1F(GQAP)100, desB30 human insulin (from UniProt P01308) (ligand)” as the substance, how does the Receptor binding (hIRA) SPA, sup % relative to HI (% relative to HI) read?
**A.** 4.98

**Q.** How did the Receptor binding (hIRA) SPA, sup % relative to HI (% relative to HI) turn out when “A21G(GEQP)50, desB30 human insulin (from UniProt P01308) (ligand)” was run?
**A.** 9.04

**Q.** With “A21G(GEQ)67, desB30 human insulin (from UniProt P01308) (ligand)” as the substance, how does the Receptor binding (hIRA) SPA, sup % relative to HI (% relative to HI) read?
**A.** 8.48

**Q.** Which Receptor binding (hIRA) SPA, sup % relative to HI (% relative to HI) does the source give for “A21G(GQAP)69, desB30 human insulin (from UniProt P01308) (ligand)” here?
**A.** 4.2

**Q.** With “A21G(GQAP)37, desB30 human insulin (from UniProt P01308) (ligand)” as the substance, how does the Receptor binding (hIRA) SPA, sup % relative to HI (% relative to HI) read?
**A.** 5.33

**Q.** For “A21G(GHEP)50, desB30 human insulin (from UniProt P01308) (ligand)”, which Receptor binding (hIRA) SPA, sup % relative to HI (% relative to HI) is on record?
**A.** 4.67

**Q.** With “A21G(GQAP)75, desB30 human insulin (from UniProt P01308) (ligand)” as the substance, how does the Receptor binding (hIRA) SPA, sup % relative to HI (% relative to HI) read?
**A.** 4.19

**Q.** “A21G(GQAP)56, desB30 human insulin (from UniProt P01308) (ligand)” was tested. Which Receptor binding (hIRA) SPA, sup % relative to HI (% relative to HI) did it give?
**A.** 3.49

**Q.** For “A21G, B1F(GQAP)50, desB30 human insulin (from UniProt P01308) (ligand)”, which Receptor binding (hIRA) SPA, sup % relative to HI (% relative to HI) is on record?
**A.** 8.38

**Q.** With “A21Q(GAPQ)50, desB30 human insulin (from UniProt P01308) (ligand)” as the substance, how does the Receptor binding (hIRA) SPA, sup % relative to HI (% relative to HI) read?
**A.** 7.52

**Q.** How did the Receptor binding (hIRA) SPA, sup % relative to HI (% relative to HI) turn out when “A21G(GHQE)50, desB30 human insulin (from UniProt P01308) (ligand)” was run?
**A.** 9.41

**Q.** How did the Receptor binding (hIRA) SPA, sup % relative to HI (% relative to HI) turn out when “A21G(GPEH)50, desB30 human insulin (from UniProt P01308) (ligand)” was run?
**A.** 10.1

**Q.** “A21Q(GQEP)50, desB30 human insulin (from UniProt P01308) (ligand)” was tested. Which Receptor binding (hIRA) SPA, sup % relative to HI (% relative to HI) did it give?
**A.** 8.54

**Q.** For “A21G(GQAP)50, desB30 human insulin (from UniProt P01308) (ligand)”, which Receptor binding (hIRA) SPA, sup % relative to HI (% relative to HI) is on record?
**A.** 4.56

**Q.** Which Receptor binding (hIRA) SPA, sup % relative to HI (% relative to HI) does the source give for “A21G, A22P, A23A, A24Q(GPAQ)49, desB30 human insulin (from UniProt P01308) (ligand)” here?
**A.** 5.7

**Q.** How did the Receptor binding (hIRA) SPA, sup % relative to HI (% relative to HI) turn out when “A21G(GQAP)100, desB30 human insulin (from UniProt P01308) (ligand)” was run?
**A.** 3.19

**Q.** “A21G(GAQ)67, desB30 human insulin (from UniProt P01308) (ligand)” was tested. Which Receptor binding (hIRA) SPA, sup % relative to HI (% relative to HI) did it give?
**A.** 6.99

**Q.** For “A21G, A22Q, A23P(GQP)66, desB30 human insulin (from UniProt P01308) (ligand)”, which Receptor binding (hIRA) SPA, sup % relative to HI (% relative to HI) is on record?
**A.** 0.08

**Q.** Which Receptor binding (hIRA) SPA, sup % relative to HI (% relative to HI) does the source give for “A21G(GPHE)50, desB30 human insulin (from UniProt P01308) (ligand)” here?
**A.** 7.85

**Q.** “A21G(GQAP)62, desB30 human insulin (from UniProt P01308) (ligand)” was tested. Which Receptor binding (hIRA) SPA, sup % relative to HI (% relative to HI) did it give?
**A.** 4.45

**Q.** For “A21G, A22Q, A23P, A24A(GQPA)49, desB30 human insulin (from UniProt P01308) (ligand)”, which Receptor binding (hIRA) SPA, sup % relative to HI (% relative to HI) is on record?
**A.** 5.53

**Q.** How did the Receptor binding (hIRA) SPA, sup % relative to HI (% relative to HI) turn out when “A21Q(GEHP)50, desB30 human insulin (from UniProt P01308) (ligand)” was run?
**A.** 5.41

**Q.** “A21G(GQEPGQHP)25, desB30 human insulin (from UniProt P01308) (ligand)” was tested. Which Receptor binding (hIRA) SPA, sup % relative to HI (% relative to HI) did it give?
**A.** 4.06

**Q.** For “A21G(GQAP)150, desB30 human insulin (from UniProt P01308) (ligand)”, which Receptor binding (hIRA) SPA, sup % relative to HI (% relative to HI) is on record?
**A.** 2.87

**Q.** How did the Receptor binding (hIRA) SPA, sup % relative to HI (% relative to HI) turn out when “A21G(GQAP)31, desB30 human insulin (from UniProt P01308) (ligand)” was run?
**A.** 4.55

**Q.** Which Receptor binding (hIRA) SPA, sup % relative to HI (% relative to HI) does the source give for “A21G(GQAP)125, desB30 human insulin (from UniProt P01308) (ligand)” here?
**A.** 2.65

**Q.** How did the Receptor binding (hIRA) SPA, sup % relative to HI (% relative to HI) turn out when “A21G, A22A, A23Q, A24P(GAQP)37, desB30 human insulin (from UniProt P01308) (ligand)” was run?
**A.** 5.71

**Q.** Which Receptor binding (hIRA) SPA, sup % relative to HI (% relative to HI) does the source give for “A21G(GPQA)50, desB30 human insulin (from UniProt P01308) (ligand)” here?
**A.** 5.05

**Q.** “A21G, A22A, A23Q, A24P(GAQP)62, desB30 human insulin (from UniProt P01308) (ligand)” was tested. Which Receptor binding (hIRA) SPA, sup % relative to HI (% relative to HI) did it give?
**A.** 3.89

**Q.** Which Receptor binding (hIRA) SPA, sup % relative to HI (% relative to HI) does the source give for “A14E, A21G(GQEP)50, B25H, desB30 human insulin (from UniProt P01308) (ligand)” here?
**A.** 3

**Q.** Which Receptor binding (hIRA) SPA, sup % relative to HI (% relative to HI) does the source give for “A21G, A22Q, A23A, A24P(GQAP)49, desB30 human insulin (from UniProt P01308) (ligand)” here?
**A.** 4.92

**Q.** With “A14E, A21G(GQAP)75, B25H, desB30 human insulin (from UniProt P01308) (ligand)” as the substance, how does the Receptor binding (hIRA) SPA, sup % relative to HI (% relative to HI) read?
**A.** 2.41

**Q.** With “A21G(GQA)67, desB30 human insulin (from UniProt P01308) (ligand)” as the substance, how does the Receptor binding (hIRA) SPA, sup % relative to HI (% relative to HI) read?
**A.** 4.11

**Q.** Which Receptor binding (hIRA) SPA, sup % relative to HI (% relative to HI) does the source give for “A21G(GQPA)50, desB30 human insulin (from UniProt P01308) (ligand)” here?
**A.** 4.26

**Q.** With “A21G(GHPE)50, desB30 human insulin (from UniProt P01308) (ligand)” as the substance, how does the Receptor binding (hIRA) SPA, sup % relative to HI (% relative to HI) read?
**A.** 3.47

**Q.** For “A21G(GPQE)50, desB30 human insulin (from UniProt P01308) (ligand)”, which Receptor binding (hIRA) SPA, sup % relative to HI (% relative to HI) is on record?
**A.** 6.53

**Q.** With “A21G(GAQP)50, desB30 human insulin (from UniProt P01308) (ligand)” as the substance, how does the Receptor binding (hIRA) SPA, sup % relative to HI (% relative to HI) read?
**A.** 4.66

**Q.** Which Receptor binding (hIRA) SPA, sup % relative to HI (% relative to HI) does the source give for “A21G(GQPE)50, desB30 human insulin (from UniProt P01308) (ligand)” here?
**A.** 4.09

**Q.** With “A21G, A22A, A23P, A24Q(GAPQ)49, desB30 human insulin (from UniProt P01308) (ligand)” as the substance, how does the Receptor binding (hIRA) SPA, sup % relative to HI (% relative to HI) read?
**A.** 9.98

**Q.** Which Receptor binding (hIRA) SPA, sup % relative to HI (% relative to HI) does the source give for “A21G, A22A, A23Q, A24P(GAQP)49, desB30 human insulin (from UniProt P01308) (ligand)” here?
**A.** 4.38

**Q.** Which Receptor binding (hIRA) SPA, sup % relative to HI (% relative to HI) does the source give for “A21Q(GQAP)50, desB30 human insulin (from UniProt P01308) (ligand)” here?
**A.** 6.55

**Q.** How did the Receptor binding (hIRA) SPA, sup % relative to HI (% relative to HI) turn out when “A21G(GQAP)44, desB30 human insulin (from UniProt P01308) (ligand)” was run?
**A.** 6.34

**Q.** “A21G(GPAQ)50, desB30 human insulin (from UniProt P01308) (ligand)” was tested. Which Receptor binding (hIRA) SPA, sup % relative to HI (% relative to HI) did it give?
**A.** 6.5

**Q.** For “A21G(GQHE)50, desB30 human insulin (from UniProt P01308) (ligand)”, which Receptor binding (hIRA) SPA, sup % relative to HI (% relative to HI) is on record?
**A.** 7.83

**Q.** With “A14E, A21G(GEPH)50, B25H, desB30 human insulin (from UniProt P01308) (ligand)” as the substance, how does the Receptor binding (hIRA) SPA, sup % relative to HI (% relative to HI) read?
**A.** 3.3

**Q.** For “A14E, A21G(GQAP)150, B25H, desB30 human insulin (from UniProt P01308) (ligand)”, which Receptor binding (hIRA) SPA, sup % relative to HI (% relative to HI) is on record?
**A.** 2.1

**Q.** For “A21G(GQE)67, desB30 human insulin (from UniProt P01308) (ligand)”, which Receptor binding (hIRA) SPA, sup % relative to HI (% relative to HI) is on record?
**A.** 6.6

**Q.** With “A14E, A21G(GQAP)50, B25H, desB30 human insulin (from UniProt P01308) (ligand)” as the substance, how does the Receptor binding (hIRA) SPA, sup % relative to HI (% relative to HI) read?
**A.** 3.15

**Q.** “A21G(GEQH)50, desB30 human insulin (from UniProt P01308) (ligand)” was tested. Which Receptor binding (hIRA) SPA, sup % relative to HI (% relative to HI) did it give?
**A.** 7.77

**Q.** How did the Receptor binding (hIRA) SPA, sup % relative to HI (% relative to HI) turn out when “A21Q(GEPH)50, desB30 human insulin (from UniProt P01308) (ligand)” was run?
**A.** 5.09

**Q.** How did the Receptor binding (hIRA) SPA, sup % relative to HI (% relative to HI) turn out when “A21G(GPEQ)50, desB30 human insulin (from UniProt P01308) (ligand)” was run?
**A.** 8.18

**Q.** How did the Receptor binding (hIRA) SPA, sup % relative to HI (% relative to HI) turn out when “A14E, A21G(GEHP)50, B25H, desB30 human insulin (from UniProt P01308) (ligand)” was run?
**A.** 3.1

**Q.** How did the Receptor binding (hIRA) SPA, sup % relative to HI (% relative to HI) turn out when “A21G(GEPQ)50, desB30 human insulin (from UniProt P01308) (ligand)” was run?
**A.** 8.24

**Q.** How did the Receptor binding (hIRA) SPA, sup % relative to HI (% relative to HI) turn out when “A21G(GQEH)50, desB30 human insulin (from UniProt P01308) (ligand)” was run?
**A.** 5.99

**Q.** With “A21G(GHEQ)50, desB30 human insulin (from UniProt P01308) (ligand)” as the substance, how does the Receptor binding (hIRA) SPA, sup % relative to HI (% relative to HI) read?
**A.** 6.7

**Q.** “A21G, A22P, A23Q, A24A(GPQA)49, desB30 human insulin (from UniProt P01308) (ligand)” was tested. Which Receptor binding (hIRA) SPA, sup % relative to HI (% relative to HI) did it give?
**A.** 5.26

Reference: patent US11208452B2
